One data set deals with rat. The data set is described as follows: Micro payload injected in rat, hypotension and dye distribution (Example 5). The data set is classed as in vivo. The following applies: half-shell Maltose cone mixed 1 mg Alprostadil, indicates vasodilation. How it is done: A sample of micro payload integrated a 1 mm length conic micro-head with drug and 2 mm length micro-stem without drug was injected in rat.

The test system of data set [1] is skin. Conditions: in vivo.
The format of data set [2] is physicochemical. The text has this:
(§1) Quadrangular pyramidal micro-head of 0.7 mm length and 0.1 mm bottom side length was contained anhydrous and amorphous oblate spheroidal Maltose chip of 0.02 mm length and 0.01 mm diameter. The chip was made from mixing material of 50% Maltose and 50% Hyaluronic acid included 30% albumen which was non-heat resistance limited in 70 degree centigrade. Three micro-heads were installed in three lengths of micro implements of 1 mm, 2 mm, and 3 mm.

Data set [3] concerns skin. The following applies: rat, in vivo.
Description: as §1

`CCCCC[C@H](O)/C=C/[C@H]1[C@H](O)CC(=O)[C@@H]1CCCCCCC(=O)O` [Alprostadil] came in with a hypotension in the data set on rat of 20 mmHg.
As for Hyaluronic acid, in the data set with skin [1], the “transfer of chip into skin” value is “completely transferred into skin”.
For albumin, the “heat stability in forming process” value in data set [2] is given as “resisted temperature of the micro implement forming process”. Further, in the data set with skin [3], the “aggregation depths versus implement length” value is on record as “corresponded to the three length respectively” and the deposition in skin entry is recorded as “albumin aggregation in skin”.

The values are drawn from US20170095417A1, “Percutaneous Implement and Method for Manufacturing” (priority 2015, published 2017).
